Holding throughout (assay): ELISA
(An ELISA detects its analyte on a solid surface through an enzyme-linked reagent.)

One test deals with human FcγRI (UniProt P12314). The settings on record: Fc 20 µg/ml (highest point of the titration); parent: est. 2.1; read off a plot.
A further test has as its target human FcγRIIIB (UniProt O75015). The settings on record: Fc 20 µg/ml (highest point of the titration); parent: est. 0.19; read off a plot.
For another test, the target named is C1q. The settings on record: Ab 20 µg/ml (highest point of the titration); parent: est. 1.7; read off a plot.
Test [1] has as its target soluble recombinant tetrameric human DC-SIGN (UniProt Q9NNX6). The settings on record: Fc 20 µg/ml (highest point of the titration); parent: est. 0.98; read off a plot.
A further test deals with human Siglec-1 (UniProt Q9BZZ2). The settings on record: Fc 50 µg/ml (highest point of the titration); parent: est. 1.2; read off a plot.
The next test concerns the target human FcγRIIIA (UniProt P08637). The settings on record: Fc 20 µg/ml (highest point of the titration); parent: est. 0.99; read off a plot.
The target of another test is human FcγRIIB (UniProt P31994). The settings on record: Fc 20 µg/ml (highest point of the titration); parent: est. 0.20; read off a plot.
Another test concerns the target human FcγRIIA (UniProt P12318). The settings on record: Fc 20 µg/ml (highest point of the titration); parent: est. 0.53; read off a plot.

Sequence of human Siglec-1 (Q9BZZ2 20-1641): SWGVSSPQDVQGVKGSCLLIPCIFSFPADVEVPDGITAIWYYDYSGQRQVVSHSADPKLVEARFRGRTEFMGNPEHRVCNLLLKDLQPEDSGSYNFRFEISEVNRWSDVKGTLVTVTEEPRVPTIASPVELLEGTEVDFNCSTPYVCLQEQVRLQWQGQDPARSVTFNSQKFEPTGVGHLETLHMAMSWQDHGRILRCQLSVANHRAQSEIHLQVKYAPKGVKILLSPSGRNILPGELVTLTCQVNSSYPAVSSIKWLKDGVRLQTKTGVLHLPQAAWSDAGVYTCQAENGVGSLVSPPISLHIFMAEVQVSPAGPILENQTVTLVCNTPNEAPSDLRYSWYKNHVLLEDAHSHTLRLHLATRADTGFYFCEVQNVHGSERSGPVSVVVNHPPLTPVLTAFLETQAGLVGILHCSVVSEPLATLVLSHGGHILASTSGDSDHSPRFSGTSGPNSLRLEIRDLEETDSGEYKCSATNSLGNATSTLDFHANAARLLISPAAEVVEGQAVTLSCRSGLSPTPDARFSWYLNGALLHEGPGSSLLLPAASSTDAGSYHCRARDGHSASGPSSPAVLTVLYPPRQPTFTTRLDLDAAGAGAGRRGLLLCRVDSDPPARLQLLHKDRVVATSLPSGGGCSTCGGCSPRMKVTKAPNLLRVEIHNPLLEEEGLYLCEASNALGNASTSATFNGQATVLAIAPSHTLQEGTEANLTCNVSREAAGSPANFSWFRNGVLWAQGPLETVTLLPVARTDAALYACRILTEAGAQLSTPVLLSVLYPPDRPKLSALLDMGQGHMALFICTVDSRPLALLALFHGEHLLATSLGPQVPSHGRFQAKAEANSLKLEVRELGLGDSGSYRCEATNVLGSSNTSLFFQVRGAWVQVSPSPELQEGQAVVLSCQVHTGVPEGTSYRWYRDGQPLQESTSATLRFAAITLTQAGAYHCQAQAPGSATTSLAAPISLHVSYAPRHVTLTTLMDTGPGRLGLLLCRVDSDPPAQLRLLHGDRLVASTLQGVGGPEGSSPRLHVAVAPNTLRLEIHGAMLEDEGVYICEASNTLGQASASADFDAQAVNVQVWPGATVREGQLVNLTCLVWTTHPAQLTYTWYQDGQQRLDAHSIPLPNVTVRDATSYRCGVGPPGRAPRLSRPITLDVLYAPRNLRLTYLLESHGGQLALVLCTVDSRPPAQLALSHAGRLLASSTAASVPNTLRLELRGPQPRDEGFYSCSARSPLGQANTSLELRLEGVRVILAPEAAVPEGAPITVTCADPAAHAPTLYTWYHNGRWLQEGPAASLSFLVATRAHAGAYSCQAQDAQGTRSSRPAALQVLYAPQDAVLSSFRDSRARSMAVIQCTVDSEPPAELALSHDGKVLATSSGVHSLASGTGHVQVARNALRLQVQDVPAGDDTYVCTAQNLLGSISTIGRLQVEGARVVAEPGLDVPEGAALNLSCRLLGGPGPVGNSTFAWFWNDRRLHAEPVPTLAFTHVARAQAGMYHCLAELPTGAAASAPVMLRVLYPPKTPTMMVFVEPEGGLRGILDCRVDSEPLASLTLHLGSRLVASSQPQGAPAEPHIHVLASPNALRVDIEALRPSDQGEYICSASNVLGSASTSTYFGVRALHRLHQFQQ
Sequence of human FcγRIIB (P31994 43-217): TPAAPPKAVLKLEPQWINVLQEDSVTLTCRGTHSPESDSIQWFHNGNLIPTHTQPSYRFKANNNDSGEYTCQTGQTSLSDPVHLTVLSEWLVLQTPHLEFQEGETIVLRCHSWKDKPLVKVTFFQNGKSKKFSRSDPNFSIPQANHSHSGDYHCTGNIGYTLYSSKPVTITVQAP
Sequence of human FcγRIIIA (P08637 17-208): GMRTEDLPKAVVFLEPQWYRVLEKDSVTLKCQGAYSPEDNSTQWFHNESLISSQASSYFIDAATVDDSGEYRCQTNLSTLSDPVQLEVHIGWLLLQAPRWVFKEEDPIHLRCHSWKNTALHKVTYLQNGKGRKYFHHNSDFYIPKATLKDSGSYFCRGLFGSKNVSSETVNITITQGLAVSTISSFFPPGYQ
Sequence of human FcγRI (P12314 16-292): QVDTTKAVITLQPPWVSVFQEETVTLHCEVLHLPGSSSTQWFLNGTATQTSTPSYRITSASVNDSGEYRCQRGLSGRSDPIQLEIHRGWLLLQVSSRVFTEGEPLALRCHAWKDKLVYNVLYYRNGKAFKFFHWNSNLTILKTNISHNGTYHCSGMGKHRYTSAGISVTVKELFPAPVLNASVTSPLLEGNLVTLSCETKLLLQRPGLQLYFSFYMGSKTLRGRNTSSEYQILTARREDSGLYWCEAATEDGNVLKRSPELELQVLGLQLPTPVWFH
Sequence of human FcγRIIA (P12318 34-217): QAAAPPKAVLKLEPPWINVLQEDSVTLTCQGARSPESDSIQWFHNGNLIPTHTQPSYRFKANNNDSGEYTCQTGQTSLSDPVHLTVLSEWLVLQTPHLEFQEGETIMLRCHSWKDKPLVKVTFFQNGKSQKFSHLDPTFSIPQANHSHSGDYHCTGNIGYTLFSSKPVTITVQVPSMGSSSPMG
Sequence of human FcγRIIIB (O75015 17-200): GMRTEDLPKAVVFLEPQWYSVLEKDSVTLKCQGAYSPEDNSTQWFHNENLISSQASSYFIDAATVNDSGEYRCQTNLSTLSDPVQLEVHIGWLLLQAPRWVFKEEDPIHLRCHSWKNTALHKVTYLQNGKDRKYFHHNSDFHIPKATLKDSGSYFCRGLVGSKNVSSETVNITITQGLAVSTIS

For “hexa-Fc (human IgG1-Fc with L309C/H310L and the 18-amino acid IgM tail piece) D221N”, the response with human FcγRI is 0.24 OD 405nm; with human FcγRIIIB, 0.073 OD 405nm; with C1q, 1.8 OD 405nm; in test [1] it was 0.64 OD 405nm; with human Siglec-1, 1.2 OD 405nm; with human FcγRIIIA, 0.09 OD 405nm. Moreover, the figures for the response with human FcγRIIB and with human FcγRIIA were 0.08 OD 405nm and 0.12 OD 405nm, respectively.
“hexa-Fc (human IgG1-Fc with L309C/H310L and the 18-amino acid IgM tail piece) D221N; N297A”: the response in the test with human FcγRI amounted to 0.065 OD 405nm; in the test with human FcγRIIIB, 0.073 OD 405nm; with C1q, 0.93 OD 405nm; in test [1], 0.33 OD 405nm; with human Siglec-1 it was 0.96 OD 405nm; with human FcγRIIIA, 0.07 OD 405nm. Moreover, the figures for the response with human FcγRIIB and with human FcγRIIA were 0.069 OD 405nm and 0.065 OD 405nm, respectively.
For the substance “hexa-Fc (human IgG1-Fc with L309C/H310L and the 18-amino acid IgM tail piece) D221N; N297A; N563A”, the figures for the response (with C1q; in test [1]; with human Siglec-1) were 0.9 OD 405nm, 0.37 OD 405nm and 1.7 OD 405nm, respectively.
As for “hexa-Fc (human IgG1-Fc with L309C/H310L and the 18-amino acid IgM tail piece) D221N; N563A”, the response was determined as 2 OD 405nm with human FcγRI; 0.1 OD 405nm with human FcγRIIIB; 2.2 OD 405nm with C1q; 0.57 OD 405nm in test [1]; 1.6 OD 405nm with human Siglec-1; 1.6 OD 405nm in the test with human FcγRIIIA. For the same substance, the response is 0.12 OD 405nm with human FcγRIIB and 0.33 OD 405nm with human FcγRIIA.
In the case of “hexa-Fc (human IgG1-Fc with L309C/H310L and the 18-amino acid IgM tail piece) N297A”, the response with human FcγRI came out at 0.065 OD 405nm; in the test with human FcγRIIIB, 0.073 OD 405nm; with C1q, 0.9 OD 405nm; in test [1], 0.28 OD 405nm; with human FcγRIIIA it was 0.07 OD 405nm; with human FcγRIIB, 0.069 OD 405nm. Also, in the test with human FcγRIIA, the response was 0.065 OD 405nm.
In the case of “hexa-Fc (human IgG1-Fc with L309C/H310L and the 18-amino acid IgM tail piece) N297A; N563A”, the response came to 0.97 OD 405nm with C1q, 0.27 OD 405nm in test [1] and 0.15 OD 405nm with human Siglec-1.
Take “hexa-Fc (human IgG1-Fc with L309C/H310L and the 18-amino acid IgM tail piece) N563A”: the response turned out to be 2.3 OD 405nm in the test with C1q and 0.84 OD 405nm in test [1].

(Values after publication PMC5546038.)
